The record followed here is patent publication US20260317446 (published 2026).

Assay [1] has as its target calmodulin. The assay can be described thus: other dot blot.
Assay [2] addresses YKL-40 A108 (human). Nature of the assay: BLI.
Assay [3] concerns the target YKL-40 A286 (human). The assay can be described thus: BLI. (In BLI a coated tip is dipped into the sample, and binding shifts an interference pattern.)
For assay [4], the target named is human YKL-40 WT (human). The assay can be described thus: BLI.
human YKL-40 WT (human), sequence (chain, as listed by the source): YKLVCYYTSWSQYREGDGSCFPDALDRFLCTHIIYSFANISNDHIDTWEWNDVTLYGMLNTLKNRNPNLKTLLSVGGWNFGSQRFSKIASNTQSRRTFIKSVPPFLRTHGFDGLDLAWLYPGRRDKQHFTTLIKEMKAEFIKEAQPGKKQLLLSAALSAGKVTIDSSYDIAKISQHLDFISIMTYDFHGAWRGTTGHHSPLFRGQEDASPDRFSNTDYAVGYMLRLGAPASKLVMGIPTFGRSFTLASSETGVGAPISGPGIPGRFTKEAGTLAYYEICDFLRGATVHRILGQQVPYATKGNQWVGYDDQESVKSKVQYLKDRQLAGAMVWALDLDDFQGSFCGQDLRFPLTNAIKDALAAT
For assay [5], the target named is YKL-40 A288 (human). Nature of the assay: BLI.
YKL-40 A288 (human), sequence (chain, as listed by the source): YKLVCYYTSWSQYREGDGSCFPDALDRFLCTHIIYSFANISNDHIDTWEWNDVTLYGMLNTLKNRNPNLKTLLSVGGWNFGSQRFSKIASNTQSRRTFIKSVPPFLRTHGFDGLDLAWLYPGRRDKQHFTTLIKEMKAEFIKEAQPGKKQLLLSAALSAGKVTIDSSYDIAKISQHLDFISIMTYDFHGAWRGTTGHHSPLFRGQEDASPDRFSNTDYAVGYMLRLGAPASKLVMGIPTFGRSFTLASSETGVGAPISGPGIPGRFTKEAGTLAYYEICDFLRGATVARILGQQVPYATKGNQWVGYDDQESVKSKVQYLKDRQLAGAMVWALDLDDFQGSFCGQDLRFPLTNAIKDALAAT
In assay [6] the target is YKL-40 A250 (human). The assay can be described thus: BLI.
YKL-40 A250 (human), sequence (chain, as listed by the source): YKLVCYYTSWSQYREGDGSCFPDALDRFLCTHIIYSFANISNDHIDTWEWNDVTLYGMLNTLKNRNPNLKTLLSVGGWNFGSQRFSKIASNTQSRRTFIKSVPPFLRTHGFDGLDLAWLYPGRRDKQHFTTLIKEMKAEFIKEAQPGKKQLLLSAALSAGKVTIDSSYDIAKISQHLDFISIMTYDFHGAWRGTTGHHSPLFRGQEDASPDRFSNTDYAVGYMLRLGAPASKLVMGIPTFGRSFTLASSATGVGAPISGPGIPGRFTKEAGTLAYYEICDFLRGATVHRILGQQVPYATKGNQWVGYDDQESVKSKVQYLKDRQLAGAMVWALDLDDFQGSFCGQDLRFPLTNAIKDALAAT
Assay [7] addresses YKL-40 A192 (human). The assay can be described thus: BLI.
In assay [8] the target is YKL-40 A194 (human). Nature of the assay: BLI.
YKL-40 A194 (human), sequence (chain, as listed by the source): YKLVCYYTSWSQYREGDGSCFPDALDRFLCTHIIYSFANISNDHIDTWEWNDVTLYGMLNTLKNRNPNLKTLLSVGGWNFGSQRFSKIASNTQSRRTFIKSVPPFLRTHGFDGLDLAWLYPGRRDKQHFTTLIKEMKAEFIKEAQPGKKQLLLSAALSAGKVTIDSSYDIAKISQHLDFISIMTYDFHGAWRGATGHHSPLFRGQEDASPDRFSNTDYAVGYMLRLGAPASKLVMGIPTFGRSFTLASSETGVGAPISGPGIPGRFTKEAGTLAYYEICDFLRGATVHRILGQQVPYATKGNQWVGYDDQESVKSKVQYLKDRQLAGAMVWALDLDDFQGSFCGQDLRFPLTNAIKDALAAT
Assay [9] concerns the target YKL-40 A141 (human). Nature of the assay: BLI.
The target in assay [10] is YKL-40 A42 (human). The assay can be described thus: BLI.
In assay [11] the target is YKL-40 A283 (human). Nature of the assay: BLI.
Assay [12] addresses YKL-40 A142 (human). Nature of the assay: BLI.
Assay [13] deals with YKL-40 A300 (human). Nature of the assay: BLI.
The target of assay [14] is YKL-40 A302 (human). The assay can be described thus: BLI.
In assay [15] the target is YKL-40 A149 (human). Nature of the assay: BLI.
Assay [16] has as its target YKL-40 A146 (human). Nature of the assay: BLI.
In assay [17] the target is YKL-40 A256 (human). Nature of the assay: BLI.
YKL-40 A256 (human), sequence (chain, as listed by the source): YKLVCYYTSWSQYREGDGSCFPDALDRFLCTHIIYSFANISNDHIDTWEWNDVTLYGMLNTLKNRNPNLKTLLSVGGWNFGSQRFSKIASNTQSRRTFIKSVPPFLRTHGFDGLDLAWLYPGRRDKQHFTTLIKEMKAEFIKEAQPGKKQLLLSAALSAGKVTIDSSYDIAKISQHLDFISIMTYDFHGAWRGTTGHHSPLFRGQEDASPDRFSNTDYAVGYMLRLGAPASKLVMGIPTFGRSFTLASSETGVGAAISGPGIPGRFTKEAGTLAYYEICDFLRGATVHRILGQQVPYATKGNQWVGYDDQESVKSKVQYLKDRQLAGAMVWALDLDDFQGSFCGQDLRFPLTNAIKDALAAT
For assay [18], the target named is YKL-40 A93 (human). The assay can be described thus: BLI.
For assay [19], the target named is YKL-40 A44 (human). Nature of the assay: BLI.
The target of assay [20] is YKL-40 A134 (human). The assay can be described thus: BLI.
Assay [21] addresses YKL-40 A249 (human). The assay can be described thus: BLI.
For assay [22], the target named is YKL-40 A175 (human). Nature of the assay: BLI.
Assay [23] concerns the target YKL-40 A191 (human). Nature of the assay: BLI.
Assay [24] addresses YKL-40 A287 (human). Nature of the assay: BLI.
Assay [25] has as its target YKL-40 A100 (human). Nature of the assay: BLI.
The target of assay [26] is YKL-40 A289 (human). The assay can be described thus: BLI.
YKL-40 A289 (human), sequence (chain, as listed by the source): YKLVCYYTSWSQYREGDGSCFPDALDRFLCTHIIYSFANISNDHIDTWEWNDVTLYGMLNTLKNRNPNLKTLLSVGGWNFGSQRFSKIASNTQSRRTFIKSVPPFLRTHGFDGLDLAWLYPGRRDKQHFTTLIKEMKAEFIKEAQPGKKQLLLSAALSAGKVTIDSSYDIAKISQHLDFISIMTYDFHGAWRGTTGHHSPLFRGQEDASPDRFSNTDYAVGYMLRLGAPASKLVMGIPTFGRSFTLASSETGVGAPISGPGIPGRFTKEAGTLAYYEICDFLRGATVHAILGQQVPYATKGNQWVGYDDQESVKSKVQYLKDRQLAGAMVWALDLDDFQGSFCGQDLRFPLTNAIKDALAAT
Assay [27] deals with YKL-40 A135 (human). The assay can be described thus: BLI.
Assay [28] addresses YKL-40 A145 (human). The assay can be described thus: BLI.
Assay [29] has as its target YKL-40 A107 (human). Nature of the assay: BLI.
Assay [30] concerns the target YKL-40 R284 (human). Nature of the assay: BLI.
Assay [31] has as its target YKL-40 A96 (human). The assay can be described thus: BLI.
The target in assay [32] is YKL-40 A172 (human). The assay can be described thus: BLI.
Assay [33] addresses YKL-40 A104 (human). The assay can be described thus: BLI.
Assay [34] has as its target YKL-40 A148 (human). Nature of the assay: BLI.
Assay [35] concerns the target YKL-40 A92 (human). The assay can be described thus: BLI.
Assay [36] concerns the target YKL-40 R301 (human). The assay can be described thus: BLI.

YKL-40 R301 (human), sequence (chain, as listed by the source): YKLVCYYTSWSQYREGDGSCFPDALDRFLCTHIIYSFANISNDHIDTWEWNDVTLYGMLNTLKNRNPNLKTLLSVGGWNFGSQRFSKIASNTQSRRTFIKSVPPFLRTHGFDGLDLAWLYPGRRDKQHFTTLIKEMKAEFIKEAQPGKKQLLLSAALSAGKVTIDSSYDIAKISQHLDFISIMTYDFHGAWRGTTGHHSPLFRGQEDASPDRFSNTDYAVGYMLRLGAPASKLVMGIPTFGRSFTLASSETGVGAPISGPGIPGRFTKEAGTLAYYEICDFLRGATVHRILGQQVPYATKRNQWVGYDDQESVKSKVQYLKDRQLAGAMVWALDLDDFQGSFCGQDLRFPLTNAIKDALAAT
YKL-40 A107 (human), sequence (chain, as listed by the source): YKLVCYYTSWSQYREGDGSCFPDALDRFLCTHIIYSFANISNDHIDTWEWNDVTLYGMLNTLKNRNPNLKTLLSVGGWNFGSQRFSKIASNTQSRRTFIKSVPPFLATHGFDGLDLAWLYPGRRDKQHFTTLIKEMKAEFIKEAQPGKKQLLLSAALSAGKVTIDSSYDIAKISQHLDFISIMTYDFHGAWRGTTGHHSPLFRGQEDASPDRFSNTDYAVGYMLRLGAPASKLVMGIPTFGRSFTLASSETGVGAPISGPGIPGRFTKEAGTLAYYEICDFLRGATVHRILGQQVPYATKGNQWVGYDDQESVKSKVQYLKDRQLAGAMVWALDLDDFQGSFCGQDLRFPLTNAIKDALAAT
YKL-40 R284 (human), sequence (chain, as listed by the source): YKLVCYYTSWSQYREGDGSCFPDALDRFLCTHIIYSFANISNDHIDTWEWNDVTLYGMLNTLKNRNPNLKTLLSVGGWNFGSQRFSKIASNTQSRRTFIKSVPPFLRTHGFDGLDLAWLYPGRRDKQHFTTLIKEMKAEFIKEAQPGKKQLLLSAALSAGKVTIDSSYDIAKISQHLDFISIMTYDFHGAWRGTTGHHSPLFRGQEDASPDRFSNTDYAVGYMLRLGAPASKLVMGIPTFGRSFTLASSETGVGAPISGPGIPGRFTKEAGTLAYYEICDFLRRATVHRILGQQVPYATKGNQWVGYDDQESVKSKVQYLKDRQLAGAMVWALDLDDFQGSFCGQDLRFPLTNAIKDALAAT
YKL-40 A92 (human), sequence (chain, as listed by the source): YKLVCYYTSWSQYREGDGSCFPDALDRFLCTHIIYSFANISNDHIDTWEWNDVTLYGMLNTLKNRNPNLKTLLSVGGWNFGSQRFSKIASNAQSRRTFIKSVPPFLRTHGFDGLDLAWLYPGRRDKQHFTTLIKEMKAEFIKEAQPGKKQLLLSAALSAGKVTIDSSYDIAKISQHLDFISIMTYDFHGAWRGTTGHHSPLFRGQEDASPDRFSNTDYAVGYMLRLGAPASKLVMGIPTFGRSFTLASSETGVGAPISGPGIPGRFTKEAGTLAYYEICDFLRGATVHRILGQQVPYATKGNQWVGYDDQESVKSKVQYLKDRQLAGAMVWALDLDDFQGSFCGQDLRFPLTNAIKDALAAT
YKL-40 A146 (human), sequence (chain, as listed by the source): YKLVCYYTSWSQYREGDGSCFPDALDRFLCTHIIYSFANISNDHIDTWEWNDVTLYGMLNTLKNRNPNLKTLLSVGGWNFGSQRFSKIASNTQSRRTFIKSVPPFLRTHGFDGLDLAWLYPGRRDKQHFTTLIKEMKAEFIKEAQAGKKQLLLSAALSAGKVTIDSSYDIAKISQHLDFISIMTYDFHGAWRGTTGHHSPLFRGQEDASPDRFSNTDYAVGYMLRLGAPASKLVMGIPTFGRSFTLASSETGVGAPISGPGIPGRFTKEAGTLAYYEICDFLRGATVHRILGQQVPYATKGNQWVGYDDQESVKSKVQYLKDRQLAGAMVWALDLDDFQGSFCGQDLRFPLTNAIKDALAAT
YKL-40 A286 (human), sequence (chain, as listed by the source): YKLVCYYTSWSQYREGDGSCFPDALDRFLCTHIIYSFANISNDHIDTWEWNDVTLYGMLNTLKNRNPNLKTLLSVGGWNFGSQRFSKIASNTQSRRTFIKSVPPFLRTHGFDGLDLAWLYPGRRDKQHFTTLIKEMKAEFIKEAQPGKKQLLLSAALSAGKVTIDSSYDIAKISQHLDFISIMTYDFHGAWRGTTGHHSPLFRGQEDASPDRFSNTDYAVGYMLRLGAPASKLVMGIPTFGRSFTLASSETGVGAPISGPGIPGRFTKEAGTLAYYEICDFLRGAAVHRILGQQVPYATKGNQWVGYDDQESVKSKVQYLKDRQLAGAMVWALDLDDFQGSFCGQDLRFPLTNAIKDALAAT
YKL-40 A249 (human), sequence (chain, as listed by the source): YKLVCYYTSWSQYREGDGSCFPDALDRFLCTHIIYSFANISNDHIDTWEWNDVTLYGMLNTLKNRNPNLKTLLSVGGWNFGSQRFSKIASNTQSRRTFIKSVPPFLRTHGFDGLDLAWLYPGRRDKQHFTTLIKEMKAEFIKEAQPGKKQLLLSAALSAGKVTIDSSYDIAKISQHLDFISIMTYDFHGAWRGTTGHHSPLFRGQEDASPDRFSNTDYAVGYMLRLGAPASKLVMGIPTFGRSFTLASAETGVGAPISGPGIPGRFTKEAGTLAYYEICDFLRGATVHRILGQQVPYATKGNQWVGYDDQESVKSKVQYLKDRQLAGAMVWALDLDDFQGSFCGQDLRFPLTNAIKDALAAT

B1: B3-hFc (antibody)
chain 1: MAEVQLLESGGGLVQPGGSLRLSCAASGFRDSDEDMGWVRQAPGKGLEWVSSISAPGGSTYYADSVKGRFTISRDNSKNTLYLQMNSLRAEDTAVYYCASHYNYGHWFDYWGQGTLVTVSSAA
chain 2: VECPPCPAPPVAGPSVFLFPPKPKDTLMISRTPEVTCVVVDVSHEDPEVQFNWYVDGMEVHNAKTKPREEQFNSTFRVVSVLTVVHQDWLNGKEYKCKVSNKGLPAPIEKTISKTKGQPREPQVYTLPPSREEMTKNQVSLTCLVKGFYPSDIAVEWESNGQPENNYKTTPPMLDSDGSFFLYSKLTVDKSRWQQGNVFSCSVMHEALHNHYTQKSLSLSPGK
Consider B1, for which the binding result in [1] is listed as “no binding”.

B2: H7 (antibody, V domains shown)
VH: EVQLQQSGAELVKPGASVKLSCTASGFNIKDTYMHWVKQRPEQGLEWIGRIDPANGNTIYASKFQGKATITRDTSSNTAYMQLSSLTSGDTAVYYCTRGVYYYGGSFYAMDYWGQGTSVTVSS
VL: DIQMTQSPASLSASVGETVTITCGASENIYGALNWYQRKQGKSPQLLIYGATTLADGMSSRFSGSGSGRQYSLKISSLHPDDVATYYCQNVLTTPWTFGGGTKLEIKT
For orientation: Kd means the free concentration of one partner at which half of the binding sites on the other are occupied at equilibrium, for simple one-to-one binding. Regarding B2, the Kd came out at 0.529 nM in assay [2]; 0.472 nM in [3]; 1180 nM in assay [4]; 0.649 nM in [5]; 120 nM in [6]; 0.699 nM in assay [7]. The Kd in [8] turned out to be 20600 nM; in assay [9] it was 0.638 nM; in assay [10], 2540 nM; in [11] it was 1.07 nM; in [12] it was 0.79 nM; in [13] it was 7260 nM. Further, the Kd worked out at 0.673 nM in [14]; 0.84 nM in [15]; 0.773 nM in assay [16]; 104 nM in assay [17]; 0.777 nM in assay [18]; 0.439 nM in assay [19]. Further, the Kd was 0.516 nM in assay [20]; 2480 nM in [21]; 0.684 nM in assay [22]; 4800 nM in assay [23]; 164 nM in assay [24]; 0.906 nM in assay [25]. For the same molecule, the Kd in [26] came out at 0.693 nM; in assay [27] it was 0.755 nM; in assay [28] it was 0.465 nM; in [29], 0.611 nM; in [30] it was 52000 nM; in [31], 0.558 nM. The Kd in assay [32] stood at 0.655 nM; in assay [33] it was 0.423 nM; in [34], 0.817 nM; in assay [35] it was 33.9 nM; in assay [36] it was 0.753 nM.
